The source of these data is article doi:10.1101/189324.

For test [1], the target named is Insulin (purified, used in vitro). Briefly: BLI.
The target is the same in test [2]. Briefly: BLI. This is another data set of the same source.
For test [3] the target is unchanged.

Where two headings read alike, the source gives them in different places.

B1: Recombinant His-tagged secretagogin (SCGN) (natural protein)
chain: MDNARRKTPARLDAACFWQIWQRFDKEEKGYIRETELDAFFDHLLAKSGTEDTLMEENVQKVKEQLMTSHNVSKEGRILMKELASMFLSEDENFLLFFRLETPLDNSVEFMQIWRKYDADSSGFISAAELCNFLRDLFLHHKKNISEAELEEYTSTMMKIFDKNKDGRLDLNDLARILALQENFLLQFKMDASSTEERKRDFEKIFAHYDVSKTGALEGPEVDGFVKDMMELVQPSISGVDLDKFREILLRHCDVNKDGKIQKSELALCLGLKINP
With B1, the Kd in test [1] came out at 1.45 µM; in test [2], 1.84 µM. Besides, in test [3], the ThT fluorescence, heat-induced fibrillation of insulin with apo-SCGN (1:2 ratio) was 50%.
